Measured values reported in patent publication US20240150473A1 (SURROZEN OPERATING, published 2024).

Key:
Fzd5 CRD (biotinylated) = target: T1, Fzd5 CRD (biotinylated) (UniProt Q13467 27-155, limits assumed, biotinylated (site not stated)); assay: BLI (Octet Red 96), biotinylated Fzd5 CRD captured on SA biosensor, R2M13 as analyte at several concentrations, 1:1 fit; the legend paragraph 32 says IgG, the methods paragraph 311 say R2M13 Fab
T1 construct: domain: CRD
T1 sequence (looked up): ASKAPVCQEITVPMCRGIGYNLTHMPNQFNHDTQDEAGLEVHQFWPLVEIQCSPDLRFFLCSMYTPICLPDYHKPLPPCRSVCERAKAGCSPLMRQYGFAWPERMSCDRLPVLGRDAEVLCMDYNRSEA
Protocol: (§1) Biotinylated CRDs of Fzds diluted to 25 nM in the running buffer (PBS, 0.05% Tween-20, 0.5% BSA, pH 7.2) were captured to the SA biosensor followed by dipping into wells containing the R2M13 Fab protein at different concentrations in running buffer or into a well with only running buffer as a reference channel. KD for each binder was calculated by Octet System software, based on fitting to a 1:1 binding model. Binding specificities of R2M13 IgG to 10 Fzds were also examined by the BLI assay. Biotinylated Fzd CRDs (H. Chen, Lu, Lee, & Li, 2020) diluted to 50 nM in the running buffer were captured to the SA biosensor followed by dipping into wells containing R2M13 IgG at 200 nM in running buffer.

Fzd8 CRD (biotinylated) = target: T2, Fzd8 CRD (biotinylated) (UniProt Q9H461 28-155, limits assumed, biotinylated (site not stated)); assay: BLI (Octet Red 96), biotinylated Fzd8 CRD captured on SA biosensor, R2M13 as analyte at several concentrations, 1:1 fit; the legend paragraph 33 says IgG, the methods paragraph 311 say R2M13 Fab
T2 construct: domain: CRD
T2 sequence (looked up): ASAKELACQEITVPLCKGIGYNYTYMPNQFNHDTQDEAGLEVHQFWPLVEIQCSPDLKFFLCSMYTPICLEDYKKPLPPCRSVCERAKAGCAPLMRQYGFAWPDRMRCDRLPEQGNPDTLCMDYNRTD
Protocol: as §1

biotinylated LRP6E3E4 [1] = target: T3, biotinylated LRP6E3E4 (UniProt O75581 631-1246, limits assumed, biotinylated (site not stated)); assay: BLI (Octet Red 96), biotinylated LRP6E3E4 on streptavidin sensor, 1:1 fit; SEC fraction D3 (second block)
T3 construct: domain: E3E4; also called Lrp6E3E4 domain; Lrp6 receptor
T3 sequence (looked up): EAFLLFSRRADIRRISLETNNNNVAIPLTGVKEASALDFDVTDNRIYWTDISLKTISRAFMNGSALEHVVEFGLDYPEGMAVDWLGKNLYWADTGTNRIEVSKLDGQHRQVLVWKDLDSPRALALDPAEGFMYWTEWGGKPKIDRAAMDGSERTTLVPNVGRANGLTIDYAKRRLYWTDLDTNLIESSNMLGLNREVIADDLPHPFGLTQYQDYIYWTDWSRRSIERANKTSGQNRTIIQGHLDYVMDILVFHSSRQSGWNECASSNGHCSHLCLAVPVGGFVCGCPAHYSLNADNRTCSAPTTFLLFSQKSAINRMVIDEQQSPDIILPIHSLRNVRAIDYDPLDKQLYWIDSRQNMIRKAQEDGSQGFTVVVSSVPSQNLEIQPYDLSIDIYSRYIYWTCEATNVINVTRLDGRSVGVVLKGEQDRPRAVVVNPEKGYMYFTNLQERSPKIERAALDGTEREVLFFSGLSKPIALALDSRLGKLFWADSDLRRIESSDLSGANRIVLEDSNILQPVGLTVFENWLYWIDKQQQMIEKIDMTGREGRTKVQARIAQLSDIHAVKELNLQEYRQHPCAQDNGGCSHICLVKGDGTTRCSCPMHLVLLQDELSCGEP
Protocol: (§2) Proteins were purified using His-Complete resin (Roche, USA) following standard procedures. Expression levels and homogeneity of VHH26 and its humanized variants were analyzed by SDS-PAGE and SEC (size-exclusion chromatography). […] Biotinylated LRP6E3E4 diluted to 50 nM in the running buffer (PBS, 0.05% Tween-20, 0.5% BSA, pH 7.2) were captured to the SA biosensor followed by dipping into wells containing the indicated VHH26 proteins at different concentrations in running buffer or into a well with only running buffer as a reference channel. KD for each binder was calculated by Octet System software, based on fitting to a 1:1 binding model. Kinetics values (Kon, Koff, KD) from each experiment was calculated from seven technical replicates of different concentrations of the molecule tested with Octet Data Analysis 9.0 (PALL ForteBio, Fremont, CA).
(§3) Central fractions of each of these peaks were examined by Octect-BLI for their ability interact with Lrp6. Kinetics parameters such as kon, koff, and KD for interaction between VHH26 constructs and Lrp6E3E4 domain are listed in Table 2.

biotinylated LRP6E3E4 [2] = target: T3, biotinylated LRP6E3E4; assay: BLI (Octet Red 96), biotinylated LRP6E3E4 on streptavidin sensor, 1:1 fit; SEC fraction D3 (first block)
Protocol: as §2, §3

B1: R2M13 IgG (the Fzd5,8 binder IgG of R2M13-26) (antibody, V domains shown)
VH: EVQLLQSGAEVKKPGSSVKVSCKASGGTFTYRYLHWVRQAPGQGLEWMGGIIPIFGTGNYAQKFQGRVTITADESTSTAYMELSSLRSEDTAVYYCASSMVRVPYYYGMDVWGQGTLVTVSS
VL: not shown
notes: also called R2M13 antibody
**Q.** With B1 as the binder, how does the Kd (Fzd5 CRD (biotinylated)) read?
**A.** The Kd was 57.5 nM.

**Q.** And the Kd (Fzd8 CRD (biotinylated))?
**A.** The Kd was 98.5 nM.

B2: VHH26 (parental) (VHH)
VHH: DVQLVESGGGLVQAGGSLRLACAGSGRIFAIYDIAWYRHPPGNQRELVAMIRPVVTEIDYADSVKGRFTISRNNAMKTVYLQMNNLKPEDTAVYYCNAKRPWGSRDEYWGQGTQVTVSS
notes: Expressed in Expi293 cells with a C-terminal hexa-histidine tag; also called VHH26_His; parental VHH26
**Q.** Which results are given for B2?
**A.** Kd (biotinylated LRP6E3E4 [1]): 22 nM; Kd (biotinylated LRP6E3E4 [2]): 17 nM
